Our source for the He/Con_2aH and He/Con_2b values is patent US20180155451A1 (published 2018).

First the molecules themselves.
T1: FcγRIIa H (human, UniProt P12318 34-217)
T1 construct: extracellular domain; also called FcγRIIa type H; 2aH
T1 sequence (looked up): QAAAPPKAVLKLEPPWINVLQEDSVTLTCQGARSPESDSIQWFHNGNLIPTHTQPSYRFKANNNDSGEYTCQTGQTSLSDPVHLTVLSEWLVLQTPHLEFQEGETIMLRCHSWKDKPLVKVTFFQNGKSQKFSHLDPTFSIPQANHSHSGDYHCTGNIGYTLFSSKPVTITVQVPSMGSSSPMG

T2: FcγRIIb (human, UniProt P31994 43-217)
T2 construct: extracellular domain; also called 2b
T2 sequence (looked up): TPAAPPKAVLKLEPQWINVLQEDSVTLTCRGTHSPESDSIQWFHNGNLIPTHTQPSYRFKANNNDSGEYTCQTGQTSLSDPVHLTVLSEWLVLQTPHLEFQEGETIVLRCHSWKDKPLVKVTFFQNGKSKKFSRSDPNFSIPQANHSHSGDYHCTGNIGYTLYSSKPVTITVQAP

B1: GpH7-A5/GpH7-B3 variant P331_06M/GpL16-k0 (antibody, human IgG1, kappa)
heavy 1: not shown
heavy 2: not shown
light: DIVMTQSPLSLPVTPGEPASISCQASESLVHSNRNTYLHWYLQKPGQSPQLLIYKVSNRFSGVPDRFSGSGSGTDFTLKISRVEAEDVGVYYCSQNTHVPPTFGQGTKVEIERTVAAPSVFIFPPSDEQLKSGTASVVCLLNNFYPREAKVQWKVDNALQSGNSQESVTEQDSKDSTYSLSSTLTLSKADYEKHKVYACEVTHQGLSSPVTKSFNRGEC
notes: heterodimerized IgG1, mutation in one H chain only; also called He Ab
B2: GpH7-A5/GpH7-B3 variant L328_19Q/GpL16-k0 (antibody, human IgG1, kappa)
heavy 1: not shown
heavy 2: not shown
light: B1 light
notes: as for B1
B3: GpH7-A5/GpH7-B3 variant P331_03V/GpL16-k0 (antibody, human IgG1, kappa)
heavy 1: not shown
heavy 2: not shown
light: B1 light
notes: as for B1
B4: GpH7-A5/GpH7-B3 variant N325_03V/GpL16-k0 (antibody, human IgG1, kappa)
heavy 1: not shown
heavy 2: not shown
light: B1 light
notes: as for B1
B5: GpH7-A5/GpH7-B3 variant P331_20W/GpL16-k0 (antibody, human IgG1, kappa)
heavy 1: not shown
heavy 2: not shown
light: B1 light
notes: as for B1
B6: GpH7-A5/GpH7-B3 variant P331_15Y/GpL16-k0 (antibody, human IgG1, kappa)
heavy 1: not shown
heavy 2: not shown
light: B1 light
notes: as for B1
B7: GpH7-A5/GpH7-B3 variant P331_16H/GpL16-k0 (antibody, human IgG1, kappa)
heavy 1: not shown
heavy 2: not shown
light: B1 light
notes: as for B1
B8: GpH7-A5/GpH7-B3 variant N325_07I/GpL16-k0 (antibody, human IgG1, kappa)
heavy 1: not shown
heavy 2: not shown
light: B1 light
notes: as for B1
B9: GpH7-A5/GpH7-B3 variant N325_08L/GpL16-k0 (antibody, human IgG1, kappa)
heavy 1: not shown
heavy 2: not shown
light: B1 light
notes: as for B1
B10: GpH7-A5/GpH7-B3 variant L328_15Y/GpL16-k0 (antibody, human IgG1, kappa)
heavy 1: not shown
heavy 2: not shown
light: B1 light
notes: as for B1
B11: GpH7-A5/GpH7-B3 variant N325_20W/GpL16-k0 (antibody, human IgG1, kappa)
heavy 1: not shown
heavy 2: not shown
light: B1 light
notes: as for B1
B12: GpH7-A5/GpH7-B3 variant N325_13S/GpL16-k0 (antibody, human IgG1, kappa)
heavy 1: not shown
heavy 2: not shown
light: B1 light
notes: as for B1
B13: GpH7-A5/GpH7-B3 variant N325_01G/GpL16-k0 (antibody, human IgG1, kappa)
heavy 1: not shown
heavy 2: not shown
light: B1 light
notes: as for B1
B14: GpH7-A5/GpH7-B3 variant N325_04F/GpL16-k0 (antibody, human IgG1, kappa)
heavy 1: not shown
heavy 2: not shown
light: B1 light
notes: as for B1
B15: GpH7-A5/GpH7-B3 variant P331_10E/GpL16-k0 (antibody, human IgG1, kappa)
heavy 1: not shown
heavy 2: not shown
light: B1 light
notes: as for B1
B16: GpH7-A5/GpH7-B3 variant N325_09D/GpL16-k0 (antibody, human IgG1, kappa)
heavy 1: not shown
heavy 2: not shown
light: B1 light
notes: as for B1
B17: GpH7-A5/GpH7-B3 variant P331_04F/GpL16-k0 (antibody, human IgG1, kappa)
heavy 1: not shown
heavy 2: not shown
light: B1 light
notes: as for B1
B18: GpH7-A5/GpH7-B3 variant P331_07I/GpL16-k0 (antibody, human IgG1, kappa)
heavy 1: not shown
heavy 2: not shown
light: B1 light
notes: as for B1
B19: GpH7-A5/GpH7-B3 variant N325_06M/GpL16-k0 (antibody, human IgG1, kappa)
heavy 1: not shown
heavy 2: not shown
light: B1 light
notes: as for B1

One assay concerns the target T1, FcγRIIa H. The assay is described as follows: SPR (Biacore), relative binding vs GpH7-A5/GpH7-B3/GpL16-k0. On the procedure: (§1) The heterodimerized antibodies He Abs in which one of the H chains was introduced with an alteration were assayed for their binding activities to each activating FcγR and inhibitory FcγR according to the method described in Example 4. […] The activating FcγRs in FIGS. 26, 27, 28, and 29 are FcγRIa, FcγRIIa (R), FcγRIIa (H), and FcγRIIIa, respectively.
(§2) Analysis of interaction between objective antibody and the FcγR was carried out using Biacore T100 (GE Healthcare). HBS-EP+ (GE Healthcare) was used as the running buffer, and the measurement temperature was set to 25° C. Chips produced by immobilizing the antigen peptide by the amine coupling method to a Series S Sencor Chip CM5 (GE Healthcare), or alternatively, chips produced by allowing preliminarily biotinylated antigen peptides to interact with and immobilize onto a Series S Sensor Chip SA (certified) (GE Healthcare) were used. Antibodies of interest were captured onto an antigen peptide-immobilized chip, and allowed to interact to each FcγR diluted with running buffer. To regenerate and repeatedly use the chip, the antibodies captured on the chip were washed off by reacting 10 mM glycine-HCl, pH 1.5.
Background: In SPR one partner is held on a chip, and binding of the other changes the refractive index at the surface.
B1: the He/Con_2aH was 85.1 % of control He Ab (=100).

With B2, the He/Con_2aH is 86.8 % of control He Ab (=100).

On to B3, for which the He/Con_2aH was 82.5 % of control He Ab (=100).

Take B4: the He/Con_2aH is 45.2 % of control He Ab (=100).

Regarding B5, the He/Con_2aH was 82.8 % of control He Ab (=100).

Turning to B6, the He/Con_2aH was 86 % of control He Ab (=100).

With B7, the He/Con_2aH is 84.5 % of control He Ab (=100).

As for B8, the He/Con_2aH was 38.1 % of control He Ab (=100).

On to B9, for which the He/Con_2aH was 52 % of control He Ab (=100).

In the case of B10, the He/Con_2aH was 90 % of control He Ab (=100).

In the case of B11, the He/Con_2aH is 47.2 % of control He Ab (=100).

As to B12, the He/Con_2aH was 79.7 % of control He Ab (=100).

In the case of B13, the He/Con_2aH is 56.8 % of control He Ab (=100).

Consider B14, for which the He/Con_2aH was 33.4 % of control He Ab (=100).

Turning to B15, the He/Con_2aH was 87.1 % of control He Ab (=100).

On to B16, for which the He/Con_2aH is 53.1 % of control He Ab (=100).

Consider B17, for which the He/Con_2aH was 84.7 % of control He Ab (=100).

With B18, the He/Con_2aH was 77.4 % of control He Ab (=100).

In the case of B19, the He/Con_2aH was 48.2 % of control He Ab (=100).

In a further assay the target is T2, FcγRIIb. The assay is described as above. The method, then:
as §1, §2
In the case of B1, the He/Con_2b was 102 % of control He Ab (=100).

With B2, the He/Con_2b was 105 % of control He Ab (=100).

With B3, the He/Con_2b is 119 % of control He Ab (=100).

As to B4, the He/Con_2b is 111 % of control He Ab (=100).

Take B5: the He/Con_2b was 111 % of control He Ab (=100).

Regarding B6, the He/Con_2b is 114 % of control He Ab (=100).

For the molecule B7, the He/Con_2b is 116 % of control He Ab (=100).

B8: the He/Con_2b is 171 % of control He Ab (=100).

B9: the He/Con_2b was 197 % of control He Ab (=100).

For B10, the He/Con_2b was 193 % of control He Ab (=100).

Take B11: the He/Con_2b is 169 % of control He Ab (=100).

As to B12, the He/Con_2b was 177 % of control He Ab (=100).

Regarding B13, the He/Con_2b was 101 % of control He Ab (=100).

With B14, the He/Con_2b was 143 % of control He Ab (=100).

For the molecule B15, the He/Con_2b was 116 % of control He Ab (=100).

As for B16, the He/Con_2b was 124 % of control He Ab (=100).

With B17, the He/Con_2b is 110 % of control He Ab (=100).

Consider B18, for which the He/Con_2b was 114 % of control He Ab (=100).

For B19, the He/Con_2b was 217 % of control He Ab (=100).
